What was measured:
[1] = biological target: β-amyloid (Aβ) overexpressed in nerve cells (UniProt P05067); experiment: Co-IP from N2a cells, relative score
[2] = biological target: β-amyloid (Aβ) overexpressed in nerve cells (UniProt P05067); experiment: cell-based or functional assay

Sequence of Peptide 5 (β 1-5 fragment of SOD1), NABi (Natural Amyloid β Binder and Amyloid β aggregation inhibitor) (P00441 2-91): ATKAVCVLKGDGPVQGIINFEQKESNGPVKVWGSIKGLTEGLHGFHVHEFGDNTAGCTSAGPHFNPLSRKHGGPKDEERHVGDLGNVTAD

Binding strength with β-amyloid [1]	fluorescence recovery after photobleaching (FRAP) of Aβ in N2a cells, within 20 seconds [2] [%]	fluorescence recovery after photobleaching (FRAP) of Aβ in N2a cells, within 90 seconds [2] [%]	Substance
3.5	–	–	Peptide 2 (β 2-7/T fragment of SOD1) (from UniProt P00441 16-145)
1	50	75	Peptide 5 (β 1-5 fragment of SOD1), NABi (Natural Amyloid β Binder and Amyloid β aggregation inhibitor)
0	–	–	Peptide 3 (β 4-6 fragment of SOD1) (from UniProt P00441 40-114)
0	–	–	Peptide 6 (β 5-8 fragment of SOD1) (from UniProt P00441 81-154)

From patent publication US20230183661A1, “BICOMPATIBLE PEPTIDEBIOCOMPATIBLE PEPTIDES FOR INHIBITION OF AGGREGATION OF B-AMYLOID PROTEIN” (Catholic University Industry Academic Cooperation Foundation, priority 2017, published 2023)
